In patent publication US20060257938A1, “Method of screening for drugs that block ligand binding to a lipid binding protein” (priority 2005, published 2006):

Columns and labels:
Assay type in all cases: binding
[1] = Probe fluorescence ratio response to palmitic acid relative to ADIFAB2; details: Table 5
Outline: (§1)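 Each fatty acid's response was expressed relative to ADIFAB2, the rI-FABP-L72A probe, as ΔR/ΔRreference. ΔR is the change in the background-corrected two-wavelength intensity ratio R=Fλ1/Fλ2 from its analyte-free baseline R0. Emission was read near about 420-480 nm for unbound and about 495-580 nm for FFA-bound probe.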

[2] = Probe fluorescence ratio response to stearic acid relative to ADIFAB2; details: Table 5
Outline: as §1

[3] = Probe fluorescence ratio response to oleic acid relative to ADIFAB2; details: Table 5
Outline: as §1

[4] = Probe fluorescence ratio response to arachidonic acid relative to ADIFAB2; details: Table 5; Arachidonic acid
Outline: as §1

[5] = Probe fluorescence ratio response to linoleic acid relative to ADIFAB2; details: Table 5
Outline: as §1

[6] = Probe fluorescence ratio response to linolenic acid relative to ADIFAB2; details: Table 5
Outline: as §1

[7] = Probe fluorescence ratio response to palmitoleic acid relative to ADIFAB2; details: Table 5
Outline: as §1

Row | Molecule | ΔR/DRAΔ2 PA [1] | ΔR/DRAΔ2 SA [2] | ΔR/DRAΔ2 OA [3] | ΔR/DRAΔ2 AA [4] | ΔR/DRAΔ2 LA [5] | ΔR/DRAΔ2 LNA [6] | ΔR/DRAΔ2 POA [7]
1 | L2P8F11: FABP probe, substitution A73I vs SEQ ID NO: 2 (protein, listed as Rattus norvegicus, PEPTIDE (1)...(131) wild-type rat intestinal fatty acid binding protein) AFDGTWKVDRNENYEKFMEKMGINVVKRKLGAHDNLKLTITQEGNKFTVKESSNFRNIDVVFELGVDFAYSLIDGTELTGTWTMEGNKLVGKFKRVDNGKELIAVREISGNELIQTYTYEGVEAKRIFKKE | 0.0 | 0.3 | 0.0 | 0.4 | 0.0 | 0.1 | 0.1
2 | L2P22H10: FABP probe, substitutions M18I F55G A73M vs SEQ ID NO: 2 (protein, listed as Rattus norvegicus, PEPTIDE (1)...(131) wild-type rat intestinal fatty acid binding protein) AFDGTWKVDRNENYEKFIEKMGINVVKRKLGAHDNLKLTITQEGNKFTVKESSNGRNIDVVFELGVDFAYSLMDGTELTGTWTMEGNKLVGKFKRVDNGKELIAVREISGNELIQTYTYEGVEAKRIFKKE | 1.1 | 0.4 | 0.6 | 0.9 | 1.1 | 1.3 | 1.2
3 | L2P9E12: FABP probe, substitutions M18L F55L A73I vs SEQ ID NO: 2 (protein, listed as Rattus norvegicus, PEPTIDE (1)...(131) wild-type rat intestinal fatty acid binding protein) AFDGTWKVDRNENYEKFLEKMGINVVKRKLGAHDNLKLTITQEGNKFTVKESSNLRNIDVVFELGVDFAYSLIDGTELTGTWTMEGNKLVGKFKRVDNGKELIAVREISGNELIQTYTYEGVEAKRIFKKE | 1.1 | 0.4 | 0.6 | 0.6 | 0.7 | 0.9 | 0.8
4 | L2P8B8: FABP probe, substitution A73F vs SEQ ID NO: 2 (protein, listed as Rattus norvegicus, PEPTIDE (1)...(131) wild-type rat intestinal fatty acid binding protein) AFDGTWKVDRNENYEKFMEKMGINVVKRKLGAHDNLKLTITQEGNKFTVKESSNFRNIDVVFELGVDFAYSLFDGTELTGTWTMEGNKLVGKFKRVDNGKELIAVREISGNELIQTYTYEGVEAKRIFKKE | 1.1 | 0.4 | 0.6 | 1.1 | 1.2 | 1.8 | 2.4
5 | L2P12G9: FABP probe, substitutions M18L A73V vs SEQ ID NO: 2 (protein, listed as Rattus norvegicus, PEPTIDE (1)...(131) wild-type rat intestinal fatty acid binding protein) AFDGTWKVDRNENYEKFLEKMGINVVKRKLGAHDNLKLTITQEGNKFTVKESSNFRNIDVVFELGVDFAYSLVDGTELTGTWTMEGNKLVGKFKRVDNGKELIAVREISGNELIQTYTYEGVEAKRIFKKE | 0.0 | 0.4 | 0.0 | 0.5 | −0.1 | 0.0 | 0.0
